Measured values from patent US20090028790A1 (INSTITUT DE CARDIOLOGIE DE MONTREAL, published 2009).
Positions of bridges follow the written chain, without caps; N, C: chain ends. No end group written: not given here.

Key:
[1] = target: adrenomedullin receptors in the lungs of dogs (dog); assay: cell-based or functional assay
[2] = target: adrenomedullin receptors in the lungs of dogs (dog); assay: competition: displacement of iodine-labelled hAM from dog lungs
[3] = target: T1, adrenomedullin receptors in the lungs of dogs (dog, UniProt A0A8I3NWR4 23-462; A0A8I3MWA8 233-365); assay: as above
T1 construct: also called AM1 (CRLR+RAMP2) receptor
T1 sequence (chain, as listed by the source, chain 1 of 2): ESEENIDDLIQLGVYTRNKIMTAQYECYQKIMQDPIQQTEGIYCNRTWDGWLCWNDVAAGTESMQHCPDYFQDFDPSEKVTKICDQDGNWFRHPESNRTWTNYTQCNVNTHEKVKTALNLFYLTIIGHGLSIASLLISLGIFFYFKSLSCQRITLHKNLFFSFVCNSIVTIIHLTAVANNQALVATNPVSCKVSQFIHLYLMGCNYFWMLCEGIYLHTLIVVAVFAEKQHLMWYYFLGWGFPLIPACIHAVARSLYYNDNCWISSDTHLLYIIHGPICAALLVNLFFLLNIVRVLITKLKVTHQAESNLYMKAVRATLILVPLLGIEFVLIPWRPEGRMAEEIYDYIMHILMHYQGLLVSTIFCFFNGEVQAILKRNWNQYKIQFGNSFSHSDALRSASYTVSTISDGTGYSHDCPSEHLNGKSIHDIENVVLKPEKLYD
T1 sequence (chain, as listed by the source, chain 2 of 2): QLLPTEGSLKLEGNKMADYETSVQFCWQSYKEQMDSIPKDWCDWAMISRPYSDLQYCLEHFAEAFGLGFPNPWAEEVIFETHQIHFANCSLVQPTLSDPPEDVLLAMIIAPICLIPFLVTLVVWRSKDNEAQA

Chain of adrenomedullin receptors in the lungs of dogs (dog) (chain, as listed by the source, chain 1 of 2): as the sequence (chain, as listed by the source, chain 1 of 2) above
Chain of adrenomedullin receptors in the lungs of dogs (dog) (chain, as listed by the source, chain 2 of 2): as the sequence (chain, as listed by the source, chain 2 of 2) above

Molecule | IC50 [3] | further results
125I-rAM(1-50) (from UniProt P43145 94-143) (peptide) |  | mean single-pass pulmonary extraction of 125I-rAM(1-50), dogs in vivo, baseline [1]: 36.4%; mean tracer 125I-rAM(1-50) extraction during a single pulmonary transit time, dog in vivo, one typical experiment, control [1]: 30%
CGRP (Phoenix Pharmaceuticals) (peptide) |  | single-pass pulmonary extraction of 125I-rAM(1-50) after administration of CGRP (100 nmol i.v.) [1]: 40.6%; single-pass pulmonary extraction of 125I-rAM(1-50), control before CGRP [1]: 44.6%
hCGRP (from UniProt P06881 83-119) (peptide) |  | IC50 [2]: 440 nM
unlabelled rAM(1-50) (from UniProt P43145 94-143) (peptide) |  | mean extraction of 125I-rAM(1-50) in the same dog after injection of unlabelled rAM(1-50) [1]: 12%; mean single-pass pulmonary extraction of 125I-rAM(1-50) after administration of unlabelled rAM(1-50) (100 nmol i.v.) [1]: 21.9%
QVQNLSHRLWQLMGPAGRQDSAPVDPSSPHSY (peptide, UniProt Q7Z4H4 116-147, looked up, ends and bridges not checked, range 16-47; Numbering 16-47 is that of the mature AM2 peptide, not of the precursor entry) [hAM2(16-47)] | 980 nM | 
TVQKLAHQIYQFTDKDKDNVAPRSKISPQGY-NH2 (also called C-terminal AM fragment) [hAM(22-52)] | 810 nM | 
SFGCRFGTCTVQKLAHQIYQFTDKDKDNVAPRSKISPQGY-NH2 (ends and bridges not checked) [hAM(13-52)] | 34 nM | 
human adrenomedullin hAM(1-52), cyclic (disulfide 16-21, also called hAM (cyclic); cyclic hAM) peptide: YRQSMNNFQGLRSFGCRFGTCTVQKLAHQIYQFTDKDKDNVAPRSKISPQGY-NH2 | 0.055 nM | 
linear human adrenomedullin hAM(1-52) (cysteine pairing not given here, also called hAM linear; linear hAM) peptide: YRQSMNNFQGLRSFGCRFGTCTVQKLAHQIYQFTDKDKDNVAPRSKISPQGY-NH2 | 7.1 nM | 
N-terminal acetylated human adrenomedullin (ends and bridges not checked, also called N-Ac hAM; N-terminal acetylated AM) peptide: Ac-YRQSMNNFQGLRSFGCRFGTCTVQKLAHQIYQFTDKDKDNVAPRSKISPQGY-NH2 | 0.041 nM | 
TQAQLLRVGCVLGTCQVQNLSHRLWQLMGPAGRQDSAPVDPSSPHSY (peptide, UniProt Q7Z4H4 101-147, looked up) [hAM2] | 480 nM | 
